The source of these data is publication PMC11208158, “Structural mechanism of bridge RNA-guided recombination”.

The target of data set [1] is T1, IS621 recombinase (Escherichia coli, UniProt A0A0E0Y1P1 1-326). The data set is described as follows: MST; 5 mM Mg2+; MST: 20 nM labelled IS621, RNA 0.076-250 nM, 37 C; labelled protein eluted in 20 mM Tris-HCl pH 7.5, 500 mM NaCl, 5 mM MgCl2, 1 mM DTT, 0.01% Tween 20. As to conditions: protein: recombinant; tags: N-terminal His8, Twin-Strep, HRV 3C site (tag removal not described); chain copies: 4; 5' stem loop, TBL and DBL.

For data set [2], the target named is T1, IS621 recombinase. Kind of data set: cryo-EM; initial synaptic complex; MST: 20 nM labelled IS621, RNA 0.076-250 nM, 37 C; labelled protein eluted in 20 mM Tris-HCl pH 7.5, 500 mM NaCl, 5 mM MgCl2, 1 mM DTT, 0.01% Tween 20. As to conditions: protein: recombinant; tags: N-terminal His8, Twin-Strep, HRV 3C site (tag removal not described); chain copies: 4; S6:S5 and S14:S13 duplexes with 6-nt mismatches at positions 2-7; TBL and DBL from two bRNA copies.

B1: WT bRNA (177 nt) (structured_RNA)
RNA: AGUGCAGAGAAAAUCGGCCAGUUUUCUCUGCCUGCAGUCCGCAUGCCGUAUCGGGCCUUGGGUUCUAACCUGUUGCGUAGAUUUAUGCAGCGGACUGCCUUUCUCCCAAAGUGAUAAACCGGACAGUAUCAUGGACCGGUUUUCCCGGUAAUCCGUAUUUGCAAGGUUGGUUUCACU
For the molecule B1, the dissociation constant Kd (as a rule, the free concentration of one partner at which half of the binding sites on the other are occupied at equilibrium, for simple one-to-one binding) in the data set with IS621 recombinase [1] came to 3 ± 1 nM.

B2: WT bRNA + 38-bp tDNA 6mm + 44-bp dDNA 6mm (mixed)
RNA: GGGAGUGCAGAGAAAAUCGGCCAGUUUUCUCUGCCUGCAGUCCGCAUGCCGUAUCGGGCCUUGGGUUCUAACCUGUUGCGUAGAUUUAUGCAGCGGACUGCCUUUCUCCCAAAGUGAUAAACCGGACAGUAUCAUGGACCGGUUUUCCCGGUAAUCCGUAUUUGCAAGGUUGGUUUCACU
DNA 1: GCCGGGTAATACCACCAAGTCTTCTACAGATGAGCTCG
DNA 2: CGAGCTCATCTGTAGGCCTGATGGTGGTATTACCCGGC
DNA 3: TGCAGGCCATAAGTCATACTTGTATTATCCCTCCAGTGCAGAGA
DNA 4: TCTCTGCACTGGAGGGATAATACAAGATACTGTTATGGCCTGCA
Regarding B2, the binding result in the data set with IS621 recombinase [2] is “binds”.
